Measured values from patent publication US8647613B2, “Drug carrier” (JCR Pharmaceuticals Co., Ltd., priority 2005, dated 2014).

B1: Catalase (from bovie liver): model protein, 232 kDa (protein, UniProt P00432 2-527, looked up)
Catalase: ADNRDPASDQMKHWKEQRAAQKPDVLTTGGGNPVGDKLNSLTVGPRGPLLVQDVVFTDEMAHFDRERIPERVVHAKGAGAFGYFEVTHDITRYSKAKVFEHIGKRTPIAVRFSTVAGESGSADTVRDPRGFAVKFYTEDGNWDLVGNNTPIFFIRDALLFPSFIHSQKRNPQTHLKDPDMVWDFWSLRPESLHQVSFLFSDRGIPDGHRHMNGYGSHTFKLVNANGEAVYCKFHYKTDQGIKNLSVEDAARLAHEDPDYGLRDLFNAIATGNYPSWTLYIQVMTFSEAEIFPFNPFDLTKVWPHGDYPLIPVGKLVLNRNPVNYFAEVEQLAFDPSNMPPGIEPSPDKMLQGRLFAYPDTHRHRLGPNYLQIPVNCPYRARVANYQRDGPMCMMDNQGGAPNYYPNSFSAPEHQPSALEHRTHFSGDVQRFNSANDDNVTQVRTFYLKVLNEEQRKRLCENIAGHLKDAQLFIQKKAVKNFSDVHPEYGSRIQALLDKYNEEKPKNAVHTYVQHGSHLSAREKANL

Experiments:
[1] = Hydrolysis of compound 28 in the liposome at low pH (thin layer chromatography); type: physicochemical; conditions: PBS pH 4.5, 37° C., 24 hours, liposome 3/4/3/0.03
Protocol: The prepared liposome (DOPC/chol/(28)/PEG-DPE=3/4/3/0.03, molar ratio) was dispersed in PBS of pH 4.5 at 37° C., and the dispersion was lyophilized 24 hours later. The dried mixed lipid powder was dissolved in chloroform and detected by thin layer chromatography (silica gel plate, chloroform/methanol (8/1) (volume/volume) detection: iodine).

[2] = cited from earlier work; for Isoelectric point: Table 2; for Isoelectric point (-): Table 5

| Molecule | hydrolysis in the liposome at low pH [1] | Isoelectric point [2] | Isoelectric point (-) [2] |
| --- | --- | --- | --- |
| CCCCCCCCCCCCCCCCOC(=O)CCC(NC(=O)C(N)CCC(=O)O)C(=O)OCCCCCCCCCCCCCCCC (centres unmarked) [compound 28] | hydrolyzed |  |  |
| Ferritin |  | 4.0-5.0 | 4.0-5.0 |
| Thyrogrobulin: model protein, 670 kDa |  | 4.5 | 4.5 |
| α-Lactalbumin: model protein, molecular weight 14 kDa |  | 4.1-4.8 | 4.1-4.8 |
| B1 |  |  | 5.5 |
